Common to all, as to assay: GST pull-down, phosphorimaging
Holding throughout (conditions): chain shown with the change, 10 pmoles GST-Dpb11, read off a plot

Assay [1] deals with T1, GST-Dpb11-wild-type, P47027.
T1 chain: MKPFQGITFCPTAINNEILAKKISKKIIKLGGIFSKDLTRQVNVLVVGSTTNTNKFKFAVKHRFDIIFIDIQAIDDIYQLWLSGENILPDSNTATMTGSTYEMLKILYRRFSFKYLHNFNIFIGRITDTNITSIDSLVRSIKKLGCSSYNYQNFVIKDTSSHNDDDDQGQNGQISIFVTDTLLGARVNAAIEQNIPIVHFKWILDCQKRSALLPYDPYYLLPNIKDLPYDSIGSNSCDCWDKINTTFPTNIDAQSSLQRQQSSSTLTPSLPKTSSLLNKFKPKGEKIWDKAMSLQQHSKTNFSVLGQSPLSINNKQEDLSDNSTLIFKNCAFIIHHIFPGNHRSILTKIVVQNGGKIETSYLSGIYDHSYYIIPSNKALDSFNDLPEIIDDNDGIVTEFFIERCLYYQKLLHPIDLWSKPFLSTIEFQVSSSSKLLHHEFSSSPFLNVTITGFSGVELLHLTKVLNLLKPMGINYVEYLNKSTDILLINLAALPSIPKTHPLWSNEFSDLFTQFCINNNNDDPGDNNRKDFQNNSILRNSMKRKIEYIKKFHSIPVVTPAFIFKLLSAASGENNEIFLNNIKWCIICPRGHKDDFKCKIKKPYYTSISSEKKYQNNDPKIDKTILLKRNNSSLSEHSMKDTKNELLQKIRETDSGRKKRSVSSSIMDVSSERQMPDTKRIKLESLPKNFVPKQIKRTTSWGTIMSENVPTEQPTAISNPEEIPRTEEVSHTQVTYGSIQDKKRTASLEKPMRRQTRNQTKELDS

Another assay concerns the target T2, PKA-GINS, Q12488.
T2 chain 1: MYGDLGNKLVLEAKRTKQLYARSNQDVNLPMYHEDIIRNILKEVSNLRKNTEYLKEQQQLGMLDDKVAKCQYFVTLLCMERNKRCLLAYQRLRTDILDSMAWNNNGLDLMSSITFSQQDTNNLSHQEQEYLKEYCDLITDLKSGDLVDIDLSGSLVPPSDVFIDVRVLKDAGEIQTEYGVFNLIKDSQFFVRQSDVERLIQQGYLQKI
T2 chain 2: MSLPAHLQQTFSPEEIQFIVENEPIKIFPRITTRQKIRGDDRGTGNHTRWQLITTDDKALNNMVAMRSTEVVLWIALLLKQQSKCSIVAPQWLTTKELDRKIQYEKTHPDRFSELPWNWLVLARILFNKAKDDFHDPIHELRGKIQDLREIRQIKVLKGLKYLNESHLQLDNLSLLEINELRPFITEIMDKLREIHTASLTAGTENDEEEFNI
T2 chain 3: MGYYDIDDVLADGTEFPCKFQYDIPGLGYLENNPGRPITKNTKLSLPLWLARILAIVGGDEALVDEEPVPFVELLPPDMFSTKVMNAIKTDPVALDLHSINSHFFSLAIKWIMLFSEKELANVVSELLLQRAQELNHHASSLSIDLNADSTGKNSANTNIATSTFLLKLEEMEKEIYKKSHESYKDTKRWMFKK
T2 chain 4: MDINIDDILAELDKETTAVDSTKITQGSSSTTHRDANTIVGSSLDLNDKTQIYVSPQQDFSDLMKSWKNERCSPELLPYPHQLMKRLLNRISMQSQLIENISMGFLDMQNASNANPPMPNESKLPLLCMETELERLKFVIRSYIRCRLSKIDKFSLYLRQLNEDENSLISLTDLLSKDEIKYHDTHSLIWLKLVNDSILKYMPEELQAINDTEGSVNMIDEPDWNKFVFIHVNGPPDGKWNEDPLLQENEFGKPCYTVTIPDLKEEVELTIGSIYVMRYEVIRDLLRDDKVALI

Assay [2] addresses T3, Sld3 (protein of Fig 3D; the legend prints 'CDK-phosphorylated Sld2'), P53135.
T3 chain: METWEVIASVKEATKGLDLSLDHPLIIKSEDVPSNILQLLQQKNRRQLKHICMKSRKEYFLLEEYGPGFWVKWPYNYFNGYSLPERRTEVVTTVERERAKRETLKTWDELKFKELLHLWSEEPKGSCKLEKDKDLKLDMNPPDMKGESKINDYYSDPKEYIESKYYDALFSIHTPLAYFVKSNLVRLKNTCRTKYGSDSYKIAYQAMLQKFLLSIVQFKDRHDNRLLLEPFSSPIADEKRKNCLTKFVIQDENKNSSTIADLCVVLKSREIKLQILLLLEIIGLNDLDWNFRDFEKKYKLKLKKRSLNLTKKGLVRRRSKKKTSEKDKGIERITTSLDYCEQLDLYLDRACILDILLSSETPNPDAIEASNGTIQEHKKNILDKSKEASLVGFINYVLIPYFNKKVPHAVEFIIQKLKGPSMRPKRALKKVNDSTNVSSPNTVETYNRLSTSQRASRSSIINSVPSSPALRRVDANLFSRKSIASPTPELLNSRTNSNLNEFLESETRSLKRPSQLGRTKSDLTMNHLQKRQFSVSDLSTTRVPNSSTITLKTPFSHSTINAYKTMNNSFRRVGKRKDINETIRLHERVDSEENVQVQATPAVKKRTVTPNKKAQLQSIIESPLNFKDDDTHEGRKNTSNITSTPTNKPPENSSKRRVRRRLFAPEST

Our source for the response values is PMC5415106.

B1: Sld2 T84D (protein)
chain: MYSFELDKLKIELKTWEHDFIDKNKREPTRDDIKSLRTVRQMYKQYSTLKKKQSLQRQKVDTQESVELPAHKKDHDEVVEIGPDPQVYGKAISIFDMNLSPIKPIYMTFTNNIDVNNDNSKTISNESSPRKTILLKSSPADRTLVAEPISSVKRQLNFQMLNASSTRTPTSSPCKNRNGKLVEIKKCSPTINPPLESGKPSGYYGPNSPLKLDEENIHLNISLNSSTKRRLQIAYPSLQKTPSKDQADISTSFSPSPLIRRPLTKSLIELAREHTEIVKEFGVLQEEDIEEEEEGEEGENGYDEKNHEDDFGLEDELIRPKVVKDIFQEDDDNDDSQAREDTFIRKRPKRRKVIRRLRDNDPETETAGFERDVHKELVKLKRRKVAEFLGSTSQISDTEFEHDPEASSGVVSSEQKPTAKRKGRKKYNLVSNNFRRLKLPKKNRFSNGRWGRR
Regarding B1, the response in assay [1] (1 pmole Sld2T84D input) turned out to be 0.28 pmol; in assay [1] (3 pmoles Sld2T84D input), 0.64 pmol; in assay [1] (10 pmoles Sld2T84D input), 1.6 pmol.

B2: GST-Dpb11-wild-type, P47027 K463E; K469E; R538E; K549E (protein)
chain: MKPFQGITFCPTAINNEILAKKISKKIIKLGGIFSKDLTRQVNVLVVGSTTNTNKFKFAVKHRFDIIFIDIQAIDDIYQLWLSGENILPDSNTATMTGSTYEMLKILYRRFSFKYLHNFNIFIGRITDTNITSIDSLVRSIKKLGCSSYNYQNFVIKDTSSHNDDDDQGQNGQISIFVTDTLLGARVNAAIEQNIPIVHFKWILDCQKRSALLPYDPYYLLPNIKDLPYDSIGSNSCDCWDKINTTFPTNIDAQSSLQRQQSSSTLTPSLPKTSSLLNKFKPKGEKIWDKAMSLQQHSKTNFSVLGQSPLSINNKQEDLSDNSTLIFKNCAFIIHHIFPGNHRSILTKIVVQNGGKIETSYLSGIYDHSYYIIPSNKALDSFNDLPEIIDDNDGIVTEFFIERCLYYQKLLHPIDLWSKPFLSTIEFQVSSSSKLLHHEFSSSPFLNVTITGFSGVELLHLTEVLNLLEPMGINYVEYLNKSTDILLINLAALPSIPKTHPLWSNEFSDLFTQFCINNNNDDPGDNNRKDFQNNSILENSMKRKIEYIEKFHSIPVVTPAFIFKLLSAASGENNEIFLNNIKWCIICPRGHKDDFKCKIKKPYYTSISSEKKYQN
Regarding B2, the response with PKA-GINS, Q12488 (1 pmole GINS input, parent: est. 0.60) came out at 0.65 pmol; in the assay with PKA-GINS, Q12488 (3 pmoles GINS input, parent: est. 1.4), 1.4 pmol; with PKA-GINS, Q12488 (10 pmoles GINS input, parent: est. 2.5), 2.6 pmol; in assay [2] (1 pmole CDK-Sld3 input, parent: est. 0.34), 0.29 pmol; in assay [2] (3 pmoles CDK-Sld3 input, parent: est. 0.60), 0.65 pmol; in assay [2] (10 pmoles CDK-Sld3 input, parent: est. 1.5), 1.4 pmol.
